In assay [1] the target is D3H44 Fab heavy chain L143E_K145T_Q179E, ABD2-His6 tagged. The assay is described as follows: LCCA, SPR of light chain tags; L1:L2 DNA 1:9 normalized to 1:1; competing light chain m16.
The target of assay [2] is D3H44 Fab heavy chain Q179K, ABD2-His6 tagged. Described as above.
The target in assay [3] is D3H44 Fab heavy chain Q179R, ABD2-His6 tagged. The description is as above.
The target in assay [4] is D3H44 Fab heavy chain S186K, ABD2-His6 tagged. The assay is described as above.
Assay [5] concerns the target D3H44 Fab heavy chain S186R, ABD2-His6 tagged. The assay is described as above.
In assay [6] the target is D3H44 Fab heavy chain L143E_K145T_Q179E, ABD2-His6 tagged. Kind of assay: LCCA, SPR of light chain tags; L1:L2 DNA 1:3 normalized to 1:1; competing light chain m16.
The target in assay [7] is D3H44 Fab heavy chain Q179K, ABD2-His6 tagged. The description is as above.
Assay [8] addresses D3H44 Fab heavy chain Q179R, ABD2-His6 tagged. The description is as above.
The target in assay [9] is D3H44 Fab heavy chain S186K, ABD2-His6 tagged. Described as above.
Assay [10] concerns the target D3H44 Fab heavy chain S186R, ABD2-His6 tagged. The assay is described as above.
Assay [11] concerns the target D3H44 Fab heavy chain L143E_K145T_Q179D, ABD2-His6 tagged. The assay is described as follows: LCCA, SPR of light chain tags; L1:L2 DNA 1:3 normalized to 1:1; competing light chain m18.
The target of assay [12] is D3H44 Fab heavy chain S186K, ABD2-His6 tagged. The description is as above.
In assay [13] the target is D3H44 Fab heavy chain S186R, ABD2-His6 tagged. The description is as above.
Assay [14] deals with D3H44 Fab heavy chain L143E_K145T_Q179E, ABD2-His6 tagged. Kind of assay: LCCA, SPR of light chain tags; L1:L2 DNA 1:3 normalized to 1:1; competing light chain m23.
In assay [15] the target is D3H44 Fab heavy chain L143E_K145T_Q179D, ABD2-His6 tagged. Described as above.
Assay [16] has as its target D3H44 Fab heavy chain S186K, ABD2-His6 tagged. The assay is described as above.
Assay [17] addresses D3H44 Fab heavy chain S186R, ABD2-His6 tagged. The description is as above.
Assay [18] addresses D3H44 Fab heavy chain L143E_K145T_Q179D, ABD2-His6 tagged. Kind of assay: LCCA, SPR of light chain tags; L1:L2 DNA 1:9 normalized to 1:1; competing light chain m18.
Assay [19] has as its target D3H44 Fab heavy chain S186K, ABD2-His6 tagged. The description is as above.
In assay [20] the target is D3H44 Fab heavy chain L143R, ABD2-His6 tagged. Kind of assay: LCCA, SPR of light chain tags; L1:L2 DNA 1:9 normalized to 1:1; competing light chain m16.
Assay [21] shares this target. Kind of assay: LCCA, SPR of light chain tags; L1:L2 DNA 1:3 normalized to 1:1; competing light chain m16.
The target in assay [22] is D3H44 Fab heavy chain L143E_K145T_Q179D, ABD2-His6 tagged. Kind of assay: LCCA, SPR of light chain tags; L1:L2 DNA 1:3 normalized to 1:1; competing light chain m19.
The target in assay [23] is D3H44 Fab heavy chain S186K, ABD2-His6 tagged. The description is as above.
Assay [24] addresses D3H44 Fab heavy chain S186R, ABD2-His6 tagged. Described as above.
Assay [25] has as its target D3H44 Fab heavy chain L143E_K145T_Q179D, ABD2-His6 tagged. Kind of assay: LCCA, SPR of light chain tags; L1:L2 DNA 1:9 normalized to 1:1; competing light chain m19.
Assay [26] addresses D3H44 Fab heavy chain S186K, ABD2-His6 tagged. The description is as above.

Consider “D3H44 light chain Q124E_Q160E_T178E, HA or FLAG tagged”, for which the H1L1:H1L2 normalized median ratio in [1] worked out at 10%; in assay [6], 9%. Besides, the H2L2:H2L1 normalized median ratio in [2] came out at 84%; in assay [3], 86%; in assay [4], 90%; in [5], 87%; in [7], 95%; in assay [8] it was 95%. In addition, the H2L2:H2L1 normalized median ratio in [9] turned out to be 98%; in [10], 94%.
Consider “D3H44 light chain Q124E_T180E, HA or FLAG tagged”, for which the H1L1:H1L2 normalized median ratio in [11] was found to be 15%; in assay [14] it was 16%; in assay [15], 16%; in assay [6] it was 15%; in assay [18], 11%. Besides, the H2L2:H2L1 normalized median ratio in [12] is 98%; in assay [13] it was 97%; in [16], 97%; in assay [17] it was 97%; in assay [10], 96%; in assay [19] it was 95%.
On to “D3H44 light chain Q124E_V133E, HA or FLAG tagged”, for which the figures for the H1L1:H1L2 normalized median ratio in assay [1] and in [6] were 8% and 7%, respectively. Besides, the H2L2:H2L1 normalized median ratio in assay [20] came out at 89%; in [21], 95%.
For “D3H44 light chain Q124K_T178R, HA or FLAG tagged”, the H1L1:H1L2 normalized median ratio was determined as 85% in [22] and 89% in assay [25]. For the same substance, the H1L1:H1L2 normalized median scalar value ln(r1/f1) in assay [22] was determined as 1.74; in assay [25] it was 2.05. Also, the results for the H2L2:H2L1 normalized median ratio in [23], in assay [24] and in assay [26] were 2%, 3% and 5%, respectively.

The record behind these values is US11306156.
